Molecular target: native myeloperoxidase monomer (one heavy and one light chain) (human) (UniProt P05164)
Assay: mass photometry; native MPO 100 nM in 20 mM HEPES pH 7.5, 200 mM NaCl, without or with 10 or 50 mM DTT, diluted 1:10 before measuring; dimer to monomers

stoichiometry N: 2
Substance: native myeloperoxidase monomer (one heavy and one light chain) (from UniProt P05164 279-745) (enzyme)

From publication PMC12629992
